Measured values as given in PMC3458543.

Biological target: T1, His-Six1-HD (Mus musculus, UniProt Q62231 110-201)
T1 sequence: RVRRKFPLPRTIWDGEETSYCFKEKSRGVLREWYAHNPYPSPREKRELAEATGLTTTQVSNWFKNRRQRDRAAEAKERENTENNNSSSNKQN
Assay: EMSA

B1: Myog_mut34 (dsDNA)
DNA 1: GTTAGAGGGGGTATCAGGTTTGTGTGGCGTTGGC
DNA 2: GCCAACGCCACACAAACCTGATACCCCCTCTAAC
binding result: binds
